Results on 5 sequences are retold here after the supplement of paper PMC5998384.

For data set [1], the system named is HeLa Kyoto. Briefly: solubility in G1/S (NP-40 vs SDS abundance) (log2 ratio); higher = more soluble. The settings on record: cell cycle stage: G1/S.
For data set [2], the system named is HeLa Kyoto. The experiment in a line: melting temperature (median over replicates), in situ; higher = more thermally stable.
For data set [3], the system named is HeLa Kyoto. Briefly: solubility change mitosis vs G1/S (difference of NP-40 vs SDS log2 ratios) (log2 ratio difference); higher = more soluble in mitosis.
For data set [4], the system named is HeLa Kyoto. Briefly: thermal stability score vs G1/S (z-score of summed log2 fold changes over temperatures); higher = more thermally stable than in G1/S.
The mark [5] stands for this setting: cell cycle stage: early G1 (4.5 h after nocodazole release).
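Wherever melting temperature (median over replicates), in situ is given: HeLa Kyoto cells synchronized by double thymidine or nocodazole block, proteins quantified by TMT10plex mass spectrometry, three independent biological replicates.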
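Wherever solubility change mitosis vs G1/S (difference of NP-40 vs SDS log2 ratios) is given: synchronized HeLa Kyoto cells (double thymidine block for G1/S, nocodazole release for mitosis), protein amounts in NP-40 versus SDS lysates quantified by mass spectrometry, three biological replicates.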
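Wherever solubility in G1/S (NP-40 vs SDS abundance) is given: HeLa Kyoto cells arrested at G1/S by double thymidine block, proteins quantified by TMT10plex mass spectrometry in mild NP-40 versus SDS extracts, three biological replicates.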
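Wherever thermal stability score vs G1/S (z-score of summed log2 fold changes over temperatures) is given: synchronized HeLa Kyoto cells, proteins quantified by TMT10plex mass spectrometry, three biological replicates, mitosis taken 0.5 h after nocodazole release, G1/S directly after double thymidine block.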

As for “MLGIWTLLPLVLTSVARLSSKSVNAQVTDINSKGLELRKTVTTVETQNLEGLHHDGQFCHKPCPPGERKARDCTVNGDEPDCVPCQEGKEYTDKAHFSSKCRRCRLCDEGHGLEVEINCTRTQNTKCRCKPNFFCNSTVCEHCDPCTKCEHGIIKECTLTSNTKCKEEGSRSNLGWLCLLLLPIPLIVWVKRKEVQKTCRKHRKENQGSHESPTLNPETVAINLSDVDLSKYITTIAGVMTLSQVKGFVRKNGVNEAKIDEIKNDNVQDTAEQKVQLLRNWHQLHGKKEAYDTLIKDLKKANLCTLAEKIQTIILKDITSDSENSNFRNEIQSLV [FAS]”, in data set [1], the “solubility in G1/S (log2)” value is 0.525. Moreover, the melting temperature in data set [2] (cell cycle stage: G1/S) came out at 54.1 °C; in data set [2] (cell cycle stage: mitosis) it was 54.4 °C. Moreover, the “solubility change mitosis (log2)” value in data set [3] is 0.0304. In addition, the thermal stability score is -0.244 in data set [4] (setting [5]) and -1.13 in data set [4] (cell cycle stage: mitosis).
For “MLGLLVALLALGLAVFALLDVWYLVRLPCAVLRARLLQPRVRDLLAEQRFPGRVLPSDLDLLLHMNNARYLREADFARVAHLTRCGVLGALRELRAHTVLAASCARHRRSLRLLEPFEVRTRLLGWDDRAFYLEARFVSLRDGFVCALLRFRQHLLGTSPERVVQHLCQRRVEPPELPADLQHWISYNEASSQLLRMESGLSDVTKDQ [THEM6]”, in data set [1], the “solubility in G1/S (log2)” value was -0.64. For the same sequence, the melting temperature in data set [2] (cell cycle stage: G1/S) is 55.3 °C; in data set [2] (cell cycle stage: mitosis) it was 53.8 °C. In data set [3], the “solubility change mitosis (log2)” value was -0.052. Also, the thermal stability score in data set [4] (setting [5]) is -1.92; in data set [4] (cell cycle stage: mitosis) it was -2.82.
Consider “MLKKFDKKDEESGGGSNPFQHLEKSAVLQEARVFNETPINPRKCAHILTKILYLINQGEHLGTTEATEAFFAMTKLFQSNDPTLRRMCYLTIKEMSCIAEDVIIVTSSLTKDMTGKEDNYRGPAVRALCQITDSTMLQAIERYMKQAIVDKVPSVSSSALVSSLHLLKCSFDVVKRWVNEAQEAASSDNIMVQYHALGLLYHVRKNDRLAVNKMISKVTRHGLKSPFAYCMMIRVASKQLEEEDGSRDSPLFDFIESCLRNKHEMVVYEAASAIVNLPGCSAKELAPAVSVLQLFCSSPKAALRYAAVRTLNKVAMKHPSAVTACNLDLENLVTDSNRSIATLAITTLLKTGSESSIDRLMKQISSFMSEISDEFKVVVVQAISALCQKYPRKHAVLMNFLFTMLREEGGFEYKRAIVDCIISIIEENSESKETGLSHLCEFIEDCEFTVLATRILHLLGQEGPKTTNPSKYIRFIYNRVVLEHEEVRAGAVSALAKFGAQNEEMLPSILVLLKRCVMDDDNEVRDRATFYLNVLEQKQKALNAGYILNGLTVSIPGLERALQQYTLEPSEKPFDLKSVPLATAPMAEQRTESTPITAVKQPEKVAATRQEIFQEQLAAVPEFRGLGPLFKSSPEPVALTESETEYVIRCTKHTFTNHMVFQFDCTNTLNDQTLENVTVQMEPTEAYEVLCYVPARSLPYNQPGTCYTLVALPKEDPTAVACTFSCMMKFTVKDCDPTTGETDDEGYEDEYVLEDLEVTVADHIQKVMKLNFEAAWDEVGDEFEKEETFTLSTIKTLEEAVGNIVKFLGMHPCERSDKVPDNKNTHTLLLAGVFRGGHDILVRSRLLLLDTVTMQVTARSLEELPVDIILASVG [COPG1]”, for which the “solubility in G1/S (log2)” value in data set [1] is -0.169. Further, the melting temperature in data set [2] (cell cycle stage: G1/S) stood at 52 °C; in data set [2] (cell cycle stage: mitosis) it was 51.5 °C. Further, the “solubility change mitosis (log2)” value in data set [3] was -0.224. Besides, the thermal stability score was 0.468 in data set [4] (setting [5]) and -0.737 in data set [4] (cell cycle stage: mitosis).
As to “MLLAVLLLLPLPSSWFAHGHPLYTRLPPSALQVLSAQGTQALQAAQRSAQWAINRVAMEIQHRSHECRGSGRPRPQALLQDPPEPGPCGERRPSTANVTRAHGRIVGGSAAPPGAWPWLVRLQLGGQPLCGGVLVAASWVLTAAHCFVGAPNELLWTVTLAEGSRGEQAEEVPVNRILPHPKFDPRTFHNDLALVQLWTPVSPGGSARPVCLPQEPQEPPAGTACAIAGWGALFEDGPEAEAVREARVPLLSTDTCRRALGPGLRPSTMLCAGYLAGGVDSCQGDSGGPLTCSEPGPRPREVLFGVTSWGDGCGEPGKPGVYTRVAVFKDWLQEQMSASSSREPSCRELLAWDPPQELQADAARLCAFYARLCPGSQGACARLAHQQCLQRRRRCELRSLAHTLLGLLRNAQELLGPRPGLRRLAPALALPAPALRESPLHPARELRLHSGSRAAGTRFPKRRPEPRGEANGCPGLEPLRQKLAALQGAHAWILQVPSEHLAMNFHEVLADLGSKTLTGLFRAWVRAGLGGRHVAFSGLVGLEPATLARSLPRLLVQALQAFRVAALAEGEPEGPWMDVGQGPGLERKGHHPLNPQVPPARQP [PRSS56]”, in data set [1], the “solubility in G1/S (log2)” value worked out at 0.296. In addition, the melting temperature in data set [2] (cell cycle stage: G1/S) is 53.2 °C; in data set [2] (cell cycle stage: mitosis), 53.3 °C. For the same sequence, the “solubility change mitosis (log2)” value in data set [3] is -0.116. Moreover, the thermal stability score in data set [4] (setting [5]) came to 1.67; in data set [4] (cell cycle stage: mitosis), 3.49.
As for “MLLKTVLLLGHVAQVLMLDNGLLQTPPMGWLAWERFRCNINCDEDPKNCISEQLFMEMADRMAQDGWRDMGYTYLNIDDCWIGGRDASGRLMPDPKRFPHGIPFLADYVHSLGLKLGIYADMGNFTCMGYPGTTLDKVVQDAQTFAEWKVDMLKLDGCFSTPEERAQGYPKMAAALNATGRPIAFSCSWPAYEGGLPPRVNYSLLADICNLWRNYDDIQDSWWSVLSILNWFVEHQDILQPVAGPGHWNDPDMLLIGNFGLSLEQSRAQMALWTVLAAPLLMSTDLRTISAQNMDILQNPLMIKINQDPLGIQGRRIHKEKSLIEVYMRPLSNKASALVFFSCRTDMPYRYHSSLGQLNFTGSVIYEAQDVYSGDIISGLRDETNFTVIINPSGVVMWYLYPIKNLEMSQQ [NAGA]”, the “solubility in G1/S (log2)” value in data set [1] was 0.254. Besides, the melting temperature in data set [2] (cell cycle stage: G1/S) turned out to be 54.8 °C; in data set [2] (cell cycle stage: mitosis), 54.5 °C. Besides, the “solubility change mitosis (log2)” value in data set [3] is -0.171. Besides, the figures for the thermal stability score in data set [4] (setting [5]) and in data set [4] (cell cycle stage: mitosis) were -1.47 and -2.02, respectively.
